Here are results for four molecules from paper PMC3234886 (Biochemistry, 2011).

The target in data set [1] is His6-Rna14 (wild type) (Saccharomyces cerevisiae) (UniProt P25298). Put plainly: cross-linking.
Data set [2] has the same target. Put plainly: SEC. On the technique in general: In gel filtration, larger molecules generally elute earlier.
Data set [3] shares this target. Put plainly: AUC.
Data set [4] deals with the molecule itself. Put plainly: cross-linking.
Data set [5] concerns the molecule itself. Put plainly: SEC.
Data set [6] addresses MBP-tagged Pcf11/Clp1 complex (yeast, UniProt P39081 1-626; Q08685 1-445). Put plainly: pull-down.
Data set [7] deals with the molecule itself. Put plainly: AUC.
Data set [8] has as its target T1, His6-Rna14-ES (R562E/Y563S) (Saccharomyces cerevisiae, UniProt P25298 1-677, R562E | Y563S).
T1 sequence (looked up): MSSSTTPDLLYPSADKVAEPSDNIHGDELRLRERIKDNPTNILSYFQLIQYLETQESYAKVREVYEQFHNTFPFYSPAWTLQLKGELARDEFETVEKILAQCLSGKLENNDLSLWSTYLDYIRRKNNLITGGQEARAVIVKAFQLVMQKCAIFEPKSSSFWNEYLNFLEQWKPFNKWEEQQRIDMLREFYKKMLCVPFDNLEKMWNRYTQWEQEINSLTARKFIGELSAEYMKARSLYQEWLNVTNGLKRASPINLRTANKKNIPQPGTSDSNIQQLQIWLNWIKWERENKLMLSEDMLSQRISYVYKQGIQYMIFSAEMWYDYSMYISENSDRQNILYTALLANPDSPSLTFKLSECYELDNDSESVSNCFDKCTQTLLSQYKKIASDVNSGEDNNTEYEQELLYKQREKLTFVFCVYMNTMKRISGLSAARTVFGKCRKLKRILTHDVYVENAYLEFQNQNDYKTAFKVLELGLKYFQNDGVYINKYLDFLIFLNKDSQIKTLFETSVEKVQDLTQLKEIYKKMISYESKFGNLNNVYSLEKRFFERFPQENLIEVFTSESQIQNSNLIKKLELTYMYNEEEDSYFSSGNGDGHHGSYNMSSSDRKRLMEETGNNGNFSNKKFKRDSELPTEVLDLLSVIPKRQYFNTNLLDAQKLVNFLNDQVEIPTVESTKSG
Kind of data set: cross-linking.

Data set [9] addresses T1, His6-Rna14-ES (R562E/Y563S). Kind of data set: SEC.

As a reminder, the stoichiometry N is a count of units in the complex or per binding partner. By Kd is commonly meant the free concentration of one partner at which half of the binding sites on the other are occupied at equilibrium, for simple one-to-one binding.

Chain of MBP-tagged Pcf11/Clp1 complex (P39081 whole entry, chain 1 of 2): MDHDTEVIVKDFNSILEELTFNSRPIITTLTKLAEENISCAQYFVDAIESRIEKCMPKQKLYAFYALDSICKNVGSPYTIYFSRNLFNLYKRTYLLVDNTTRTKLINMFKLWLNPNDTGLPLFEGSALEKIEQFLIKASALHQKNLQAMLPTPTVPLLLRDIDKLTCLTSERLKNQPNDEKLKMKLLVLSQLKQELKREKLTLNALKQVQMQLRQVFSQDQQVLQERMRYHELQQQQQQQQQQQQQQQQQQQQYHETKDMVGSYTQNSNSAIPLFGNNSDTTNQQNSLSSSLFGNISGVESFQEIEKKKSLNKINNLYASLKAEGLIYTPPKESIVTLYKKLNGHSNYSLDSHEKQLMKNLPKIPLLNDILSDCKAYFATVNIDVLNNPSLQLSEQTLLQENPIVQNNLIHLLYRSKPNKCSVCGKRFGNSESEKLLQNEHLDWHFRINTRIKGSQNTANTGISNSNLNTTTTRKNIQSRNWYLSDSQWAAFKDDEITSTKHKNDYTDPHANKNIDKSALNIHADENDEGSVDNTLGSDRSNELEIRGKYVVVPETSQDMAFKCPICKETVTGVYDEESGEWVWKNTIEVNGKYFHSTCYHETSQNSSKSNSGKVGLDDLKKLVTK
Chain of MBP-tagged Pcf11/Clp1 complex (Q08685 whole entry, chain 2 of 2): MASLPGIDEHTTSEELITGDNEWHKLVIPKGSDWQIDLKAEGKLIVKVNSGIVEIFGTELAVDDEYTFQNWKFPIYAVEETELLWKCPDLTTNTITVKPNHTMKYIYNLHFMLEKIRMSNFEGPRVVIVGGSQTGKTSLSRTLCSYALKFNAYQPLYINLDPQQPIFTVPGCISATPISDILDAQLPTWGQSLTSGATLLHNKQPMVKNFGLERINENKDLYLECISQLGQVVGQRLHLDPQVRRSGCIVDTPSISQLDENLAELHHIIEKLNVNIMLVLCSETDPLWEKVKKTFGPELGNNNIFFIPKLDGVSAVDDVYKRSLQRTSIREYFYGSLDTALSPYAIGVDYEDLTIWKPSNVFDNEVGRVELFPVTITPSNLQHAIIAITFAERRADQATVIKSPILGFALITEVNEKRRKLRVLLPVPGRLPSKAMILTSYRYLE

Consider “Rna15 (untagged, co-expressed with Rna14) (from UniProt P25299 1-296) (natural protein)”, for which the stoichiometry N (Rna15 per Rna14 (2:2)) in data set [1] and in [3] was 1 each time. Besides, the ratio of Rna14 to Rna15 (intensity of stained bands, SEC peak fractions) in data set [2] came out at 2.7.

B1: His6-Rna14 (wild type) (natural protein, Saccharomyces cerevisiae, UniProt P25298 1-677, looked up)
chain: MSSSTTPDLLYPSADKVAEPSDNIHGDELRLRERIKDNPTNILSYFQLIQYLETQESYAKVREVYEQFHNTFPFYSPAWTLQLKGELARDEFETVEKILAQCLSGKLENNDLSLWSTYLDYIRRKNNLITGGQEARAVIVKAFQLVMQKCAIFEPKSSSFWNEYLNFLEQWKPFNKWEEQQRIDMLREFYKKMLCVPFDNLEKMWNRYTQWEQEINSLTARKFIGELSAEYMKARSLYQEWLNVTNGLKRASPINLRTANKKNIPQPGTSDSNIQQLQIWLNWIKWERENKLMLSEDMLSQRISYVYKQGIQYMIFSAEMWYDYSMYISENSDRQNILYTALLANPDSPSLTFKLSECYELDNDSESVSNCFDKCTQTLLSQYKKIASDVNSGEDNNTEYEQELLYKQREKLTFVFCVYMNTMKRISGLSAARTVFGKCRKLKRILTHDVYVENAYLEFQNQNDYKTAFKVLELGLKYFQNDGVYINKYLDFLIFLNKDSQIKTLFETSVEKVQDLTQLKEIYKKMISYESKFGNLNNVYSLEKRFFERFPQENLIEVFTSRYQIQNSNLIKKLELTYMYNEEEDSYFSSGNGDGHHGSYNMSSSDRKRLMEETGNNGNFSNKKFKRDSELPTEVLDLLSVIPKRQYFNTNLLDAQKLVNFLNDQVEIPTVESTKSG
With B1, the figures for the “stoichiometry N” value in [4] and in data set [5] were 2 copies of Rna14 in the complex and 2, respectively.

B2: wild-type Rna14/Rna15 complex (2:2 heterotetramer) (complex, Saccharomyces cerevisiae)
chain 1: MSSSTTPDLLYPSADKVAEPSDNIHGDELRLRERIKDNPTNILSYFQLIQYLETQESYAKVREVYEQFHNTFPFYSPAWTLQLKGELARDEFETVEKILAQCLSGKLENNDLSLWSTYLDYIRRKNNLITGGQEARAVIVKAFQLVMQKCAIFEPKSSSFWNEYLNFLEQWKPFNKWEEQQRIDMLREFYKKMLCVPFDNLEKMWNRYTQWEQEINSLTARKFIGELSAEYMKARSLYQEWLNVTNGLKRASPINLRTANKKNIPQPGTSDSNIQQLQIWLNWIKWERENKLMLSEDMLSQRISYVYKQGIQYMIFSAEMWYDYSMYISENSDRQNILYTALLANPDSPSLTFKLSECYELDNDSESVSNCFDKCTQTLLSQYKKIASDVNSGEDNNTEYEQELLYKQREKLTFVFCVYMNTMKRISGLSAARTVFGKCRKLKRILTHDVYVENAYLEFQNQNDYKTAFKVLELGLKYFQNDGVYINKYLDFLIFLNKDSQIKTLFETSVEKVQDLTQLKEIYKKMISYESKFGNLNNVYSLEKRFFERFPQENLIEVFTSRYQIQNSNLIKKLELTYMYNEEEDSYFSSGNGDGHHGSYNMSSSDRKRLMEETGNNGNFSNKKFKRDSELPTEVLDLLSVIPKRQYFNTNLLDAQKLVNFLNDQVEIPTVESTKSG
chain 2: MNRQSGVNAGVQNNPPSRVVYLGSIPYDQTEEQILDLCSNVGPVINLKMMFDPQTGRSKGYAFIEFRDLESSASAVRNLNGYQLGSRFLKCGYSSNSDISGVSQQQQQQYNNINGNNNNNGNNNNNSNGPDFQNSGNANFLSQKFPELPSGIDVNINMTTPAMMISSELAKKPKEVQLKFLQKFQEWTRAHPEDAVSLLELCPQLSFVTAELLLTNGICKVDDLIPLASRPQEEASATNNNSVNEVVDPAVLNKQKELLKQVLQLNDSQISILPDDERMAIWDLKQKALRGEFGAF
As for B2, in data set [6], the “stoichiometry N” value was 1 Clp1/Pcf11 sub-complex per CF IA. In data set [7], this molecule registered a Kd of 45 µM.

B3: Rna15 (untagged, co-expressed with Rna14) (natural protein, Saccharomyces cerevisiae, UniProt P25299 1-296, looked up)
chain: MNRQSGVNAGVQNNPPSRVVYLGSIPYDQTEEQILDLCSNVGPVINLKMMFDPQTGRSKGYAFIEFRDLESSASAVRNLNGYQLGSRFLKCGYSSNSDISGVSQQQQQQYNNINGNNNNNGNNNNNSNGPDFQNSGNANFLSQKFPELPSGIDVNINMTTPAMMISSELAKKPKEVQLKFLQKFQEWTRAHPEDAVSLLELCPQLSFVTAELLLTNGICKVDDLIPLASRPQEEASATNNNSVNEVVDPAVLNKQKELLKQVLQLNDSQISILPDDERMAIWDLKQKALRGEFGAF
With B3, the “stoichiometry N” value in data set [8] was 1 Rna15 per Rna14-ES (1:1). Also, the “ratio of Rna14 to Rna15 (intensity of stained bands, SEC peak fractions)” value in [9] worked out at 2.5.
